Molecular target: EGFP (UniProt P42212 1-238 = GFP)
Assay: Biacore (SPR)

B1: GBP6 nanobody alone (VHH)
VHH: QVQLQESGGGSVQTGGSLRLSCAVSPYIGSRISLGWFRQAPGKVREGVALINSRDGSTYYADTVKGRFTISQGDANTVYLQMNSLKPEDTAIYYCAARWGQITDIQALAVASFPDWGQGTQVTVSS
notes: also called GPB6
- Kd: 2.26 nM
